Laboratory results from patent US20240368617A1, “NPR1 VARIANT TO ENHANCE PLANT RESISTANCE TO BIOTIC AND ABIOTIC STRESSES AND METHOD THEREOF” (Duke University, published 2024).

Assays:
[1] = target: the molecule itself; assay: X-ray crystal structure of NPR1(deltaSBD); tetramer in the crystal
Procedure: 5. X-ray crystallography studies of NPR1 (ΔSBD)) and the TGA3 NID. Arabidopsis NPR1 (²SBD) (Thr39-Asp410) was cloned into the pTrcHis vector (Thermo Fisher Scientific) as a His10-MBP fusion protein containing a PreScission protease site following MBP and a C-terminal Strep tag. Expression and purification of NPR1 (²SBD) was performed using similar procedures to those described above for E. coli-expressed NPR1, except that the size-exclusion chromatography buffer contained 20 mM HEPES (pH 7.5), 150 mM NaCl and 1 mM TCEP. Protein crystals were grown using the sitting-drop vapor diffusion method at 20° C. Each drop was prepared by mixing 1 μl of the protein solution at 6 mg ml-1 with 1 μl of the reservoir solution containing 0.1 M HEPES (pH 7.5), 19% PEG 3350, 0.25 m tri-sodium citrate. Diffraction-quality protein crystals were collected after 1 week and cryoprotected with the reservoir solution containing 25% glycerol.

TGA3 (Asn87-Thr384) = target: T1, TGA3 (Asn87-Thr384) (Arabidopsis thaliana, UniProt Q39234 Q39234:87-384); assay: EMSA; conditions: tags: His10-MBP (PreScission site) N-terminal, C-terminal tandem Flag-HA; AT1G22070; E. coli; label: 6-FAM
T1 sequence: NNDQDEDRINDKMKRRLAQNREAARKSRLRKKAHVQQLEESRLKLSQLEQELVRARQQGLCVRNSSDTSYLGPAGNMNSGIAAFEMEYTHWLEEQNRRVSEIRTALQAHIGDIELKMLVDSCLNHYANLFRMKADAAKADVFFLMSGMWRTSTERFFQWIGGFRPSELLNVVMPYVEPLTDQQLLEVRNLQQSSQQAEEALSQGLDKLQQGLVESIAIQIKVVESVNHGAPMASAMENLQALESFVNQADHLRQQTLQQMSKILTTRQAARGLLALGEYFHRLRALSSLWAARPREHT
Procedure: The npr1(dim) mutant (L49D/F53D/V56D/V83K) was cloned into the pTrcHis vector (Thermo Fisher Scientific) as a His10-MBP fusion protein containing a PreScission protease site following MBP and a C-terminal Strep tag, and was expressed and purified similarly to the WT NPR 1 protein. Purified TGA3 (Asn87-Thr384) at a concentration of 0.6 μM and WT NPR1 or the npr1(dim) mutant at a concentration of 8 μM were used in the EMSA with the 6-fluorescein (6-FAM)-labelled oligonucleotide probes (200 nM) containing the LS5 and LS7 as-I cis-elements of the SA-responsive PRI gene promoter (LS5/LS7, 6-FAM-C-ggg[…]ggg) or DNA sequences with the two as-1 regions replaced with adenosines (LS5/LS7, 6-FAM-C-ggg[…]ggg), with the LS7 as-1 element replaced with adenosines (LS5/LS7, 6-FAM-C-ggg[…]-GAggg) or with the LS5 as-1 element replaced with adenosines (LS5/LS7, 6-FAM-C-ggg[…]ggg) as well as their complementary oligonucleotides (Integrated DNA Technologies). The uppercase bases indicate the LS5/LS7 sequence; the lowercase bases indicate overhangs outside the LS5/LS7 sequence; and bases replaced with adenosines are indicated with A's in the small capital font. Pairs of complementary DNA strands were annealed before the binding reaction. For each binding reaction, the desired protein combination was mixed with the target DNA probe together with 30 ng/μL of poly (dI-dC) (non-specific competitor, Thermo Fisher Scientific) in a binding buffer containing 20 mM HEPES (pH 8.0), 300 mM NaCl, 10% glycerol, 1 mM DTT and 0.2 mM SA. […] After electrophoresis, the gel was scanned with the Typhoon FLA 7000 imager (GE Healthcare).

[2] = target: the molecule itself; assay: X-ray crystal structure, 1.5 A; self-association
Procedure: The Arabidopsis TGA3 NID (Ala160-Thr384) was cloned into the pTrcHis vector (Thermo Fisher Scientific) as a His10-MBP fusion protein containing a PreScission protease site following MBP and a C-terminal tandem Flag-HA tag. The purification procedure was per-formed similarly to that of Arabidopsis TGA3 (Asn87-Thr384) except that the size-exclusion chromatography buffer contained 20 mM HEPES (pH 7.5), 150 mM NaCl and 1 mM TCEP. Protein crystals were grown using the sitting-drop vapor diffusion method at 20° C. Each drop contained 1 μl of the protein solution mixed with 1 μl of the reservoir solution (0.1 m sodium acetate at pH 5.0, 20% (v/v) MPD). Diffraction quality protein crystals were collected after 1 week and cryoprotected with the reservoir solution also containing 25% glycerol.

[3] = target: the molecule itself; assay: hydrogen peroxide-induced oligomerization, non-reducing SDS-PAGE
Procedure: WT NPR1 BTB/BHB (Thr39-Lys262) and the npr1(C156A), npr1 (C82A) and npr1(C212V/C216A/C223L) mutants were cloned into the pTrcHis vector (Thermo Fisher Scientific) as His10-MBP fusion proteins with a PreScission protease site following MBP and a C-terminal Strep tag. The proteins were expressed and purified similarly to the NPR1 (²SBD) as described above. The NPR1 BTB/BHB WT and mutant proteins at a concentration of 25 μM were incubated with 1 mM hydrogen peroxide in a buffer containing 125 mM HEPES and 150 mM NaCl at pH 8.0 at room temperature for 45 min. The oxidized samples were incubated with 50 mM iodoacetamide for 5 min, mixed with 4× SDS loading dye and analyzed using SDS-PAGE in the absence of any reducing reagent.

B1: Arabidopsis NPR1(deltaSBD) (Thr39-Asp410) with C-terminal Strep tag (other)
chain: TGPDVSALQLLSNSFESVFDSPDDFYSDAKLVLSDGREVSFHRCVLSARSSFFKSALAAAKKEKDSNNTAAVKLELKEIAKDYEVGFDSVVTVLAYVYSSRVRPPPKGVSECADENCCHVACRPAVDFMLEVLYLAFIFKIPELITLYQRHLLDVVDKVVIEDTLVILKLANICGKACMKLLDRCKEIIVKSNVDMVSLEKSLPEELVKEIIDRRKELGLEVPKVKKHVSNVHKALDSDDIELVKLLLKEDHTNLDDACALHFAVAYCNVKTATDLLKLDLADVNHRNPRGYTVLHVAAMRKEPQLILSLLEKGASASEATLEGRTALMIAKQATMAVECNNIPEQCKHSLKGRLCVEILEQEDKREQIPRD
notes: E. coli expressed, His10-MBP removed; Crystal structure PDB 7MK3; two dimers stack to a tetramer in the crystal; also called NPR1 (ASBD); NPR1 (^2SBD); not shown: C-terminal Strep tag
B1: binds [1].

B2: PR1 promoter LS5-/LS7- (both as-1 replaced) (dsDNA)
DNA 1: GGGCTAAAAAAAAAGTAAAATAGAAAAAAAAAGAGGG
DNA 2: CCCTCTTTTTTTTTCTATTTTACTTTTTTTTTAGCCC
B2: no binding (TGA3 (Asn87-Thr384)).

B3: Arabidopsis TGA3 NID (Ala160-Thr384) with C-terminal tandem Flag-HA tag (other, Arabidopsis thaliana, UniProt Q39234 160-384, looked up)
chain: AGNMNSGIAAFEMEYTHWLEEQNRRVSEIRTALQAHIGDIELKMLVDSCLNHYANLFRMKADAAKADVFFLMSGMWRTSTERFFQWIGGFRPSELLNVVMPYVEPLTDQQLLEVRNLQQSSQQAEEALSQGLDKLQQGLVESIAIQIKVVESVNHGAPMASAMENLQALESFVNQADHLRQQTLQQMSKILTTRQAARGLLALGEYFHRLRALSSLWAARPREHT
notes: range 160-384; Crystallised as a dimer with palmitate (PDB 7TAE); not shown: C-terminal tandem Flag-HA tag
B3: binds [2].

B4: WT NPR1 BTB/BHB (Thr39-Lys262) with C-terminal Strep tag (other)
chain: TGPDVSALQLLSNSFESVFDSPDDFYSDAKLVLSDGREVSFHRCVLSARSSFFKSALAAAKKEKDSNNTAAVKLELKEIAKDYEVGFDSVVTVLAYVYSSRVRPPPKGVSECADENCCHVACRPAVDFMLEVLYLAFIFKIPELITLYQRHLLDVVDKVVIEDTLVILKLANICGKACMKLLDRCKEIIVKSNVDMVSLEKSLPEELVKEIIDRRKELGLEVPK
notes: E. coli expressed, His10-MBP fusion with PreScission site, purified as NPR1(deltaSBD); Used in hydrogen peroxide oxidation assay; also called NPR1 BTB-BHB domain; NPR1 (residues Thr39-Lys262); not shown: C-terminal Strep tag
B4: binds [3].
